Experimental data as given in patent US12156889B2, “Methods of administering mesenchymal stem cells activated by cytokines for enhancing immunosuppression” (Rutgers, The State University of New Jersey, priority 2012, dated 2024).
Entries after “also recorded” stand apart in the source; their conditions may differ.

System: CD4+ T cell blasts
Experiment: T cell blast proliferation in co-culture with MSCs (3H-thymidine incorporation)
Assay type: cell-based, mouse
Method: FIG. 1. is a graph showing that immunosuppression by MSCs is induced by proinflammatory cytokines. Cloned MSCs were supplemented with the indicated combinations of recombinant cytokines (20 ng/ml each) for 8 hours, then co-cultured with CD4+ T cell blasts at a 1:20 ratio (MSC:T cells), and proliferation assessed after an additional 8 hours. Values represent means±SD of five wells from a representative of three experiments with different clones. * p<0.001.
FIGS. 9A, 9B, 9C, 9D, 9E, 9F and 9G. (FIG. 9A). Cloned MSCs were first treated with the indicated combinations of recombinant cytokines IFNγ, TNFα, IL-17A (2 ng/ml each) for 12 hr, then cocultured with CD4^+ T cell blasts at a 1:20 ratio (MSC:T cells), and proliferation was assessed by 3H-thymidine incorporation after an additional 12 hr. (FIG. 9B). The mRNA expression of IL-17 receptor family members in MSCs or Raw 264.7 (Macrophages) were examined by RT-PCR. NC: No RT. (FIG. 9C). Surface expression of IL-17RA was detected by immunofluoresence or flow cytometry in cloned MSCs. (FIGS. 9D and 9E). MSCs were first treated with IFNγ and TNFα with or without IL-17A (10 ng/ml), IFNγ and TNFα were supplemented at different cytokine concentrations, for 12 hr, and then cocultured with CD4^+ T cell blasts (FIG. 9D) or T cell hybridoma A1.1 cells (FIG. 9E) at a ratio of 1:20 for 12 hr. T cell proliferation was measured by 3H-Tdr incorporation. (FIG. 9F). MSCs were first treated with IFNγ and TNFα (2 ng/ml) with graded concentrations of IL-17A, for 12 hr, and then cocultured with T cell hybridoma A1.1 cells at a ratio of 1:10 for 12 hr. T cell proliferation was measured by 3H-thymidine incorporation. (FIG. 9G). MSCs were cocultured with fresh C57BL/6 splenocytes plus anti-CD3, anti-CD28, and antibodies against IL-17A, at a 1:20 or 1:40 ratio (MSCs:splenocytes), for 48 hr, and then cell proliferation was assessed by 3H-thymidine incorporation. Proliferation values represent means±SEM of three wells from a representative of three experiments.
T cell blasts were generated from CD4^+ T cells purified by negative selection with […] T cell subset isolation kits (R&D Systems). Cells (1×10^6 cells/ml) were activated by plastic-bound anti-CD3 and soluble anti-CD 28 for 48 hours, then cultured with IL-2 (200 U/ml) alone for 48 hours. All T cell cultures were maintained in RPMI-1640 medium supplemented with 10% heat-inactivated FBS, 2 mM glutamine, 100 U/ml penicillin, 100 μ·g/ml streptomycin, and […] (complete medium).
Since most reported studies of immunosuppression by MSCs are based on their effects on T cell proliferation and cytokine production, the effect of MSCs was first examined on the IL-2-driven proliferation of T cell blasts. Fresh CD4^+ T cell blasts were generated from splenocytes by activation with anti-CD3 followed by expansion with IL-2 for several days (Devadas, et al. (2006) Immunity 25:237-247; Radvanyi, et al. (1996) Cell Immunol. 170:260-273). T cell blasts were added at a 1:20 ratio (MSC:T cells) along with IL-2 (200 U/ml). Cell proliferation was assessed by ^3H-Tdr incorporation after 8 hours. […] MSCs also had no effect on the proliferation of T hybridoma A1.1 cells. These T cells blasts and T hybridoma cells, however, produce no cytokines unless reactivated through the TCR (Fotedar, et al. (1985) J. Immunol. 135(5):3028-33). Thus, in the absence of T cell cytokines, MSCs were unable to suppress T cell proliferation.
The effect of IFNγ was then tested directly by adding isolated recombinant IFNγ (20 ng/ml) instead of activated splenocyte supernatant to the mixed co-cultures of MSC+ T cell blasts or MSC+A1.1 cells. […] Therefore, induction of the immunosuppressive function of MSCs by anti-CD3-activated splenocyte supernatant may be due to IFNγ acting in concert with either TNFα; IL-1α; or IL-1β on the MSCs. […]

B1: IL-17A: recombinant mouse interleukin 17A (protein)
chain: AAIIPQSSACPNTEAKDFLQNVKVNLKVFNSLGAKVSSRRPSDYLNRSTSPWTLHRNEDPDRYPSVIWEAQCRHQRCVNAEGKLDHHMNSVLIQQEILVLKREPESCPFTFRVEKMLVGVGCTCVASIVRQAA
**Q.** Which “T cell proliferation after MSC treatment with low-concentration cytokines” value (2 ng/ml each, 12 hr, then 1:20 MSC:T cells) does the source give for B1 here?
**A.** cannot induce immunosuppression; also recorded: markedly enhanced

**Q.** What about the “IFNγ and TNFα concentrations (as low as) at which IL-17A enhances the immunosuppressive effect of MSCs” value (10 ng/ml IL-17A, CD4+ T cell blasts or A1.1) of the same molecule?
**A.** 1 to 2 ng/mL

**Q.** What about the “immunosuppression at higher concentrations of IFNγ and TNFα” value (IFNγ and TNFα 10-20 ng/ml) of the same molecule?
**A.** still improved immunosuppression
